Data published in paper PMC3477478.

Substrate: CC(=O)O
Assay: purified protein
Details: 10 mM ATP, 0.47 mM HSCoA, 10 mM MgCl2, 120 mM hydroxylamine, 10 mM reduced glutathione, Tris/HCl pH 7.5, 37 °C, apparent Km

B1: K. stuttgartiensis ACS (kustc1128), AMP-forming acetyl-CoA synthetase (Candidatus Kuenenia stuttgartensis) (protein)
chain: MNKTEIINKHPEAFNLICYEDQHKNFSWETVKKELGVGGNKVNIAYEAIDKHATTWRKNKVALYWEGSDGTHLKYTFQELKILSDKCANMLQSLGVGKGDRVFLFLPRLPELFINMIAIAKLGAISGPMFSAFGPDAVRDRLQNSEAKVLITTPELKERVDAVLWELPKLERIVLVSVKEDYELEEGNVCYKTLMKDAPERFEMEWMDMEDPLYLLYTSGTTGKPKGITHVHNDMISYYITTKWSLDLRDDDIYWCTADPGWVTGTVYGMWGPWLNGVSMYIYDGRFDVNKWYEAIQSYKITVWYTAPTALRMLMKSGDYLVAQYDLESLRYICSVGEPLNPEVIKWGMNVYNLPIHDTWWQTETGSIMIANYPCIPIKPGSMGKPFPGIKAAIIDSEGNELPDGHHGILALKPGWPSMLRKVWGDEGRFNEYFNITGWYTTGDTAYKDEEGYFWFVGRADDVINTSGHRVGPFEVESALLEHRAVAEAGVIGKPDPERGEIIKAFIALKEGFKPSSELGEEIKKFIKHHLAAHAYPREIEFCENLPKTRSGKIMRRLLKAKDLGLPTGDISTLED
Q: For B1, which Km is on record?
A: 200 µM
